Reference: patent publication US20250136694A1 (HARBOUR BIOMED SHANGHAI, published 2025)
Numbering of substitutions follows the chain as printed.

T1: human B7-H4 on the cell surface (human, UniProt Q7Z7D3 25-282)
T1 construct: whole, on cells; also called hu B7-H4; CHO-K1/huB7-H4
T1 sequence (looked up): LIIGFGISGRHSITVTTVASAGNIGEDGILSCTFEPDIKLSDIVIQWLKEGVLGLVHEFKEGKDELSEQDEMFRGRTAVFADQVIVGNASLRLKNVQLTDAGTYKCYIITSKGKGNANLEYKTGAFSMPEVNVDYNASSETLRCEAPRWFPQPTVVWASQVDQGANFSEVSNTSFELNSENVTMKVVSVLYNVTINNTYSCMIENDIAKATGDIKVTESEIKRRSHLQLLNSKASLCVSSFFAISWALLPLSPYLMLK

T2: human B7-H4 (protein in solution, BLI) (human, UniProt Q7Z7D3 25-258, limits assumed)
T2 sequence (looked up): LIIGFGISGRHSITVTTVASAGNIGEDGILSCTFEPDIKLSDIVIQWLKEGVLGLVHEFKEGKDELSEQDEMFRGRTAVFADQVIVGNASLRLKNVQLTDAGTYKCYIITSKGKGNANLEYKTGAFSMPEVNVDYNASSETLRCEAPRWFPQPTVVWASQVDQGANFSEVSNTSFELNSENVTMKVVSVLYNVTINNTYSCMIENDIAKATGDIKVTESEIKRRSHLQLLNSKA

T3: mouse B7-H4 on the cell surface (mouse, UniProt Q7TSP5 25-257)
T3 construct: whole, on cells; also called m B7-H4; CHO-K1/mB7-H4
T3 sequence (looked up): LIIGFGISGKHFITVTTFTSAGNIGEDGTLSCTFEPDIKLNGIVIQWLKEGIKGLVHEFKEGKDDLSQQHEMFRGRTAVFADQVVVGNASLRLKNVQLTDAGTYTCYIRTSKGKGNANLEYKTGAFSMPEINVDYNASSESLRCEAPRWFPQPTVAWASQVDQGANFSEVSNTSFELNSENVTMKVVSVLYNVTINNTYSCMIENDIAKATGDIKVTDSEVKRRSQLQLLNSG

T4: cynomolgus monkey B7-H4 on the cell surface (cynomolgus monkey, UniProt A0A2K5U6P5 25-282)
T4 construct: whole, on cells; also called cyno B7-H4; CHO-K1/cynoB7-H4
T4 sequence: T1 sequence (looked up) with L53I, F242L, S252A

B1: PR006391 (bispecific antibody, human IgG1, lambda)
light: QAVVTQEPSLTVSPGGTVTLTCRSSTGAVTTSNYANWVQQKPGQAPRGLIGGTNKRAPWTPARFSGSLLGDKAALTLLGAQPEDEAEYFCALWYSNLWVFGGGTKLTVLGQPKAAPSVTLFPPSSEELQANKATLVCLISDFYPGAVTVAWKADSSPVKAGVETTTPSKQSNNKYAASSYLSLTPEQWKSHRSYSCQVTHEGSTVEKTVAPTECS
heavy: EVQLVESGGGLVQPGGSLKLSCAASGFTFSTYAMNWVRQASGKGLEWVGRIRSKYNNYATYYADSVKDRFTISRDDSKNTAYLQMNSLKTEDTAVYYCTRHGNFGNSYVSWFAYWGQGTLVTVSSASTKGPSVFPLAPSSKSTSGGTAALGCLVKDYFPEPVTVSWNSGALTSGVHTFPAVLQSSGLYSLSSVVTVPSSSLGTQTYICNVNHKPSNTKVDKKVEPKSCDKTHTCPPCPAPEAAGAPSVFLFPPKPKDTLMISRTPEVTCVVVDVSHEDPEVKFNWYVDGVEVHNAKTKPREEQYNSTYRVVSVLTVLHQDWLNGKEYKCKVSNKALPAPIEKTISKAKGQPREPQVYTLPPCREEMTKNQVSLWCLVKGFYPSDIAVEWESNGQPENNYKTTPPVLDSDGSFFLYSKLTVDKSRWQQGNVFSCSVMHEALHNHYTQKSLSLSPGK
chain: EVQLVESGGGLVQPGGSLRLSCAASGFAFSNYWMHWARQVPGKGRVWISRISGDSRSTSYADSVKGRFTISRDNAKNMVYLQMNNLRAEDTAVYYCARDRFGDDYYYGMNVWGQGTTVTVSSGGGGSGGGGSGGGGSEVQLVESGGGLVQPGGSLRLSCAASGFAFSNYWMHWARQVPGKGRVWISRISGDSRSTSYADSVKGRFTISRDNAKNMVYLQMNNLRAEDTAVYYCARDRFGDDYYYGMNVWGQGTTVTVSSASEPKSSDKTHTCPPCPAPEAAGAPSVFLFPPKPKDTLMISRTPEVTCVVVDVSHEDPEVKFNWYVDGVEVHNAKTKPREEQYNSTYRVVSVLTVLHQDWLNGKEYKCKVSNKALPAPIEKTISKAKGQPREPQVCTLPPSREEMTKNQVSLSCAVKGFYPSDIAVEWESNGQPENNYKTTPPVLDSDGSFFLVSKLTVDKSRWQQGNVFSCSVMHEALHNHYTQKSLSLSPGK
notes: also called B7-H4xCD3 bispecific antibody; PR003886 Fab + bivalent PR007440
B2: PR005885 (bispecific antibody, human IgG1, lambda)
light: B1 light
heavy: B1 heavy
scFv: EIVMTQSPASLSVSPGERATLSCRASQSVSSNLAWYQQKPGQAPRLLIYGASTRATGIPARVSGGGSGTEFTLTISSLQSEDFAVYYCQQYKNWPFTFGPGTKLEIKGGGGSGGGGSGGGGSGGGGSQVQLVQSGAEVKKPGSSMRVSCKASEDTFSSYAISWVRQAPGQGLEWMGGTAPIFGTTNYAQKFQGRVTITADKSTSTAYMELSSLRSEDTAVYYCARGGPYFDYWGQGTLVTVSSASEPKSSDKTHTCPPCPAPEAAGAPSVFLFPPKPKDTLMISRTPEVTCVVVDVSHEDPEVKFNWYVDGVEVHNAKTKPREEQYNSTYRVVSVLTVLHQDWLNGKEYKCKVSNKALPAPIEKTISKAKGQPREPQVCTLPPSREEMTKNQVSLSCAVKGFYPSDIAVEWESNGQPENNYKTTPPVLDSDGSFFLVSKLTVDKSRWQQGNVFSCSVMHEALHNHYTQKSLSLSPGK
notes: Chain-3 is the VL-linker-VH scFv of anti-B7-H4 antibody PR003366 fused to hinge-CH2-CH3 (hole); also called B7-H4xCD3 bispecific antibody; 1+1 Fab-Fc-scFv

How the values were obtained:
[1] = biological target: T1, human B7-H4 on the cell surface; experiment: FACS, MDA-MB-468 cells
Description: (§1) Antibody binding experiments at the cellular level were performed using tumor cells endogenously expressing B7-H4 or primary T cells expressing CD3. MDA-MB-468 cells or human T cells were resuspended in PBS containing 2% BSA. The cell density was adjusted to 1×10⁶ cells/mL. The cells were seeded in a 96-well V-bottom plate (Corning, #3894) at 100 μL/well, followed by the addition of test antibodies 3-fold serially diluted at a concentration that was 2 times the final concentration, each at 100 μL/well. The cells were incubated away from light at 4° C. for 2 h. Then, the cells in each well were rinsed twice with 100 μL of pre-cooled PBS containing 2% BSA and centrifuged at 500 g at 4° C. for 5 min, and then the supernatant was discarded. […] The cells in each well were rinsed twice with 100 μL of pre-cooled PBS containing 2% BSA and centrifuged at 500 g at 4° C. for 5 min, and then the supernatant was discarded. Finally, the cells in each well were resuspended with 200 μL of pre-cooled PBS containing 2% BSA, and the fluorescence signal values were read using an ACEA Novocyte3000 flow cytometer.

[2] = biological target: T2, human B7-H4 (protein in solution, BLI); experiment: BLI (Octet), antibody captured on AHC sensor, antigen in solution
Description: The binding kinetics between the antigen and the antibody was analyzed by the biolayer interferometry (BLI) technique using an Octet Red 96e molecular interaction analyzer (Fortebio).
When the affinity of the antigen for the antibody was determined, the rotation speed of the sensor was set at 1000 rpm/min. […] Finally, the AHC sensor was immersed in a 10 mM glycine-hydrochloric acid solution at pH 1.5 for regeneration to elute the proteins bound to the sensor.
When data analysis was performed using Octet Data Analysis software (Fortebio, version 11.0), 0 nM was taken as a reference well, and reference subtraction was performed; the “1:1 Global fitting” method was selected to fit the data, and the kinetics parameters of the binding of antigens to antigen-binding proteins were calculated, with kₒₙ(1/Ms) values, kdis(1/s) values, and KD(M) values obtained (see Table 3 and FIG. 2).

[3] = biological target: T1, human B7-H4 on the cell surface; experiment: FACS, MDA-MB-468 cells; remark: listed apart in the source
Description: as §1
The results are shown in Tables 6-1, 6-2, and 6-3 and FIGS. 5A-5F.

[4] = biological target: T3, mouse B7-H4 on the cell surface; experiment: FACS, CHO-K1/m B7-H4 cells
[5] = biological target: T1, human B7-H4 on the cell surface; experiment: FACS, CHO-K1/hu B7-H4 cells
Description: (§2) This example is intended to investigate the in vitro binding activity of the CD3 bispecific antibodies of B7-H4 for human, cynomolgus monkey, and mouse B7-H4. Antibody binding experiments at the cellular level were conducted using a CHO-K1 cell strain overexpressing human B7-H4 (CHO-K1/huB7-H4, Harbour BioMed), a CHO-K1 cell strain overexpressing cynomolgus monkey B7-H4 (CHO-K1/cynoB7-H4, Harbour BioMed), and a CHO-K1 cell strain overexpressing mouse B7-H4 (CHO-K1/mB7-H4, Harbour BioMed). Briefly, cells were digested and resuspended in PBS containing 2% FBS, and the cell density was adjusted to 1×10⁶ cells/mL. The cells were seeded in a 96-well V-bottom plate (Corning, Cat #3894) at 100 μL/well, followed by the addition of test antibodies 3-fold serially diluted at a concentration that was 2 times the final concentration, each at 100 μL/well. The cells were incubated away from light at 4° C. for 2 h. Then, the cells in each well were rinsed twice with 100 μL of pre-cooled PBS and centrifuged at 500 g at 4° C. for 5 min, and then the supernatant was discarded. […] The cells in each well were then rinsed twice with 100 μL of pre-cooled PBS and centrifuged at 500 g at 4° C. for 5 min, and then the supernatant was discarded. Finally, the cells in each well were resuspended in 200 μL of pre-cooled PBS, and the fluorescence signal values were read using ACEA Novocyte3000.

[6] = biological target: T4, cynomolgus monkey B7-H4 on the cell …; experiment: FACS, CHO-K1/cyno B7-H4 cells
Description: as §2

[7] = biological target: T3, mouse B7-H4 on the cell surface; experiment: FACS, CHO-K1/m B7-H4 cells; remark: listed apart in the source
Description: as §2

| Binder | EC50 [1] [nM] | Kd [2] [nM] | koff [2] [s⁻¹] | kon [2] [M⁻¹ s⁻¹] | EC50 [3] [nM] | binding result [4] | EC50 [5] [nM] | EC50 [6] [nM] | EC50 [7] [nM] |
| --- | --- | --- | --- | --- | --- | --- | --- | --- | --- |
| B1 | 15.8 | 3.75 | 0.000339 | 90400 | 19.1 | no binding | 3.54 | 3.79 |  |
| B2 | 92.6 |  |  |  |  |  | 4.79 | 5.92 | 37 |
